Laboratory results reported in the supplement of paper PMC9732359.
± gives the uncertainty stated by the source.

Test: protein stability index of a GFP-peptide fusion (yeast GPS) (PSI 1-4); higher = more stable; sorted into four equal gates, so the index is relative within each strain
How it was run: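 Yeast carrying a pooled library were grown to mid-log phase in leucine-free medium. Each library plasmid expresses Cherry and has a tiled 17-residue yeast protein peptide fused downstream of GFP. Cells were sorted into four equal gates by GFP/Cherry ratio, and plasmids from each gate were PCR-amplified, Illumina-sequenced and assigned to strains by barcode. Summing, across gates, the read frequency times the gate number gave each peptide's protein stability index.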

Sequence | protein stability index (doa10∆) | protein stability index (pdr5∆) | protein stability index (san1∆) | protein stability index (ubr1∆)
SHERFFLSQGLHVVITL [CSN12] | 2.89 ± 0.099 | 2.94 ± 0.094 | 2.74 ± 0.18 | 2.87 ± 0.12
SHINTNVGDNNSTASSS [ARP7] | 2.68 ± 0.095 | 3.02 ± 0.067 | 2.9 ± 0.062 | 2.84 ± 0.066
SHLFNEYSYVDSNMDSI [RPN4] | 3.26 ± 0.1 | 3.56 ± 0.087 | 2.93 ± 0.1 | 3.06 ± 0.069
SHNVDELLEHIETIGHL [RPN5] | 2.51 ± 0.084 | 2.24 ± 0.1 | 2.14 ± 0.11 | 1.53 ± 0.082
SIAAERYDYSDEVGRRS [YCG1] | 3 ± 0.075 | 2.99 ± 0.11 | 2.65 ± 0.14 | 3.04 ± 0.063
SIATKRFDAQTGSDREV [RPT3] | 3.28 ± 0.13 | 3.17 ± 0.1 | 3.17 ± 0.077 | 3.48 ± 0.11
SIISSKTSCVVEKRIGK [RGR1] | 2.46 ± 0.089 | 2.62 ± 0.084 | 2.59 ± 0.093 | 2.69 ± 0.05
SIKEHSTTMDGANDLGF [MED1] | 2.53 ± 0.14 | 2.8 ± 0.073 | 2.15 ± 0.28 | 2.86 ± 0.09
SIVLLLLSQFGIKVLPE [YML103C/NUP188] | 1.8 ± 0.096 | 1.28 ± 0.085 | 1.18 ± 0.13 | 1.42 ± 0.033
SIVTVVSSAKFSGKYLK [RPL22B] | 2.8 ± 0.1 | 2.86 ± 0.11 | 2.73 ± 0.085 | 2.73 ± 0.093
SKALYPDYYMIIKYPVA [SNF2] | 2.37 ± 0.039 | 2.31 ± 0.038 | 2.02 ± 0.054 | 2.53 ± 0.031
SKEVRGSKIRVMWGKVT [RPL33A] | 2.68 ± 0.1 | 2.35 ± 0.12 | 2.4 ± 0.092 | 2.6 ± 0.067
SKFSKQQAKGAFQKVAA [RPL24A] | 2.21 ± 0.065 | 2.7 ± 0.078 | 2.9 ± 0.05 | 2.54 ± 0.05
SKINSTELLDYATKLSK [MED4] | 2.79 ± 0.23 | 2.72 ± 0.12 | 2.49 ± 0.072 | 2.94 ± 0.15
SKLIPEVINKEIENATK [RPS1A] | 2.86 ± 0.22 |  | 2.78 ± 0.23 | 3.16 ± 0.19
SKLKKETASFIPTKESL [YIL149C/MLP2] | 2.74 ± 0.072 | 3.15 ± 0.098 | 2.44 ± 0.15 | 2.57 ± 0.057
SKLLREHGYQSRGFEVM [RPB2] | 3.14 ± 0.13 | 2.71 ± 0.16 | 2.9 ± 0.14 | 2.61 ± 0.19
SKLPDPERWLPLRDRST [SRP72] | 2.09 ± 0.067 | 2.91 ± 0.068 | 2.55 ± 0.077 | 2.46 ± 0.058
SKMYNTDKKAFLGALKY [PRP8] | 2.52 ± 0.092 | 2.27 ± 0.071 | 2.47 ± 0.1 | 2.63 ± 0.11
SKNSKLSIICVGGHNVT [SIR3] | 1.71 ± 0.069 | 1.57 ± 0.039 | 1.39 ± 0.081 | 1.52 ± 0.041
SKQNGIEQSITKNIPIT [SSN8] | 2.63 ± 0.082 | 2.67 ± 0.069 | 2.66 ± 0.079 | 2.84 ± 0.068
SKQVQVSQQPLSRGYTC [ECM29] | 2.83 ± 0.074 | 2.76 ± 0.091 | 2.44 ± 0.061 | 2.92 ± 0.052
SKSMKFSRRFDCRDVYC [CSN9] | 2.7 ± 0.07 | 2.64 ± 0.09 | 2.58 ± 0.088 | 2.66 ± 0.051
SKTVKVLKTLIEKFEQV [RPN6] | 2.27 ± 0.2 | 3.25 ± 0.1 | 3.07 ± 0.11 | 2.83 ± 0.07
SKTVVTLSEPVQGELKP [FAS1] | 2.56 ± 0.05 | 2.73 ± 0.052 | 2.5 ± 0.053 | 2.18 ± 0.033
SKVSIEQRKEAAEFVLA [RPN7] | 2.12 ± 0.13 | 2.49 ± 0.15 | 2.45 ± 0.09 | 2.45 ± 0.06

Sequence | protein stability index (doa10∆) | protein stability index (pdr5∆) | protein stability index (san1∆) | protein stability index (ubr1∆)
SKWFNLEKIHSIEVQSL [SWI3] | 2.67 ± 0.24 | 2.45 ± 0.13 | 1.59 ± 0.14 | 2.72 ± 0.12
SLAGFHKVQTKLTRELE [RPS7A] | 2.4 ± 0.065 | 1.98 ± 0.06 | 1.57 ± 0.13 | 2.04 ± 0.058
SLAILGMNLLSNLSQNV [SWI1] | 2.44 ± 0.055 | 2.94 ± 0.058 | 2.69 ± 0.052 | 2.81 ± 0.046
SLAQNDCNSALDQLLVL [RPN5] | 2.15 ± 0.048 | 2.35 ± 0.053 | 2.15 ± 0.053 | 2.37 ± 0.05
SLAWSADGQTLFAGYTD [ASC1] | 2.66 ± 0.08 | 3.05 ± 0.091 | 2.7 ± 0.075 | 3.09 ± 0.1
SLDIRHDFIKGLIMLNL [NUT1] | 2.18 ± 0.064 | 1.56 ± 0.068 | 1.31 ± 0.13 | 1.72 ± 0.057
SLEENAMSTVTLGVVGK [SKI6] | 3.22 ± 0.16 | 3.21 ± 0.14 | 3.04 ± 0.099 | 2.72 ± 0.11
SLFSKIKTFFTQKDSAR [YAR002W/NUP60] | 2.21 ± 0.091 | 2.84 ± 0.083 | 2.42 ± 0.09 | 2.68 ± 0.087
SLGIAQPKGVILYGPPG [RPT6] | 2.71 ± 0.061 | 2.89 ± 0.072 | 2.77 ± 0.089 | 2.91 ± 0.077
SLHSNSFSLTVSKEQFL [YJL039C/NUP192] | 1.81 ± 0.065 | 1.8 ± 0.072 | 1.84 ± 0.12 | 1.43 ± 0.078
SLKLENSDLEGKIRGVE [SMC2] | 3.23 ± 0.086 | 3.37 ± 0.064 | 3.37 ± 0.061 | 3.21 ± 0.05
SLLDKPDEAIEKVFNAY [FAS1] | 3.15 ± 0.085 | 3.34 ± 0.099 | 3.2 ± 0.066 | 3.29 ± 0.078
SLSDNDLAVCATIIGII [ECM29] | 2.71 ± 0.072 | 2.83 ± 0.056 | 2.78 ± 0.053 | 2.75 ± 0.038
SLSIKLATLHYQKKQYK [RPN6] | 1.33 ± 0.064 | 1.28 ± 0.061 | 1.34 ± 0.11 | 1.34 ± 0.079
SLWRRTVYSLSQQAGLD [YDL116W/NUP84] | 1.9 ± 0.12 | 2.39 ± 0.28 | 1.78 ± 0.27 | 2.26 ± 0.08
SMCGFEVRILPRQRMEE [PRP8] | 2.29 ± 0.057 | 1.87 ± 0.053 | 2.23 ± 0.063 | 2.24 ± 0.049
SMNVTLGVPRIKEIINA [RPO31] | 2.71 ± 0.066 | 2.56 ± 0.048 | 2.13 ± 0.065 | 2.47 ± 0.046
SNEDVMMTGAEQDPYSN [RPB3] | 3.09 ± 0.092 | 3.09 ± 0.079 | 3.19 ± 0.085 | 3.12 ± 0.073
SNEEKEKIKMKLKQGQK [GAL11] | 2.96 ± 0.25 | 3.37 ± 0.12 | 3.04 ± 0.07 | 
SNEEQRNLDSATLKEIK [SMC3] | 3.5 ± 0.14 | 3.21 ± 0.13 | 3.46 ± 0.084 | 3.48 ± 0.16
SNGGNNMLPQRQSSVGS [SNF2] | 1.76 ± 0.067 | 2.18 ± 0.097 | 2.19 ± 0.076 | 2.55 ± 0.045
SNKKETKKKRKPTEVND [ITC1] | 3.15 ± 0.078 | 3.31 ± 0.074 | 3.26 ± 0.07 | 3.23 ± 0.062
SNLAATKSMVKIAEQYS [RPN11] | 2.83 ± 0.075 | 2.73 ± 0.064 | 3.04 ± 0.051 | 2.98 ± 0.063
SNMFDNSADVDMDAQGR [YGL100W/SEH1] | 3.42 ± 0.085 | 3.55 ± 0.076 | 3.5 ± 0.057 | 3.29 ± 0.062
SNNTGNTAFGNSNPTSN [YJL041W/NSP1] | 3.01 ± 0.15 | 3.19 ± 0.13 | 2.66 ± 0.15 | 
SNQLISNYAASNSMDRS [SWI1] | 3.11 ± 0.18 | 3.19 ± 0.15 | 3.27 ± 0.12 | 3.09 ± 0.12
